# Source: publication PMC7614228, “Structural maturation of SYCP1-mediated meiotic chromosome synapsis by SYCE3” (Nature structural & molecular biology, 2023)
# Where “and” joins values, the source holds several entries; their conditions need not be identical. Identical values can stand only once.
# B1: SYCP1αN ΔNtip (domain or fragment, human, UniProt Q15431 112-362, looked up)
# chain: EAEKIKKWKVSTEAELRQKESKLQENRKIIEAQRKAIQELQFGNEKVSLKLEEGIQENKDLIKENNATRHLCNLLKETCARSAEKTKKYEYEREETRQVYMDLNNNIEKMITAFEELRVQAENSRLEMHFKLKEDYEKIQHLEQEYKKEINDKEKQVSLLLIQITEKENKMKDLTFLLEESRDKVNQLEEKTKLQSENLKQSIEKQHHLTKELEDIKVSLQRSVSTQKALEEDLQIATKTICQLTEEKETQ
# notes: SYCP1αN (101-362) with the αNtip (101-111) deleted; also called SYCP1 ΔNtip; source: E. coli BL21(DE3), co-purified with SYCE3
# B2: SYCE3 α1-α2 (amino-acids 12-88) (domain or fragment, human, UniProt A1L190 12-88, looked up)
# chain: DNMLKMLSDLNKDLEKLLEEMEKISVQATWMAYDMVVMRTNPTLAESMRRLEDAFVNCKEEMEKNWQELLHETKQRL
# notes: SYCE3 α1-α2, amino-acids 12-88; source: E. coli BL21(DE3), co-purified with SYCP1αNcore; not shown: His or His-MBP, N-terminal, cleaved
# B3: SYCE3 P53Q (natural protein, human, UniProt A1L190 1-88, looked up)
# chain: MDDADPEERNYDNMLKMLSDLNKDLEKLLEEMEKISVQATWMAYDMVVMRTNQTLAESMRRLEDAFVNCKEEMEKNWQELLHETKQRL
# notes: SYCE3 with P53Q; source: E. coli BL21(DE3), co-purified with SYCP1αNcore; not shown: His or His-MBP, N-terminal, cleaved
# B4: MBP-SYCE3 (natural protein, human, UniProt A1L190 1-88, looked up)
# chain: MDDADPEERNYDNMLKMLSDLNKDLEKLLEEMEKISVQATWMAYDMVVMRTNPTLAESMRRLEDAFVNCKEEMEKNWQELLHETKQRL
# notes: SYCE3 without a stated truncation; source: E. coli BL21(DE3), co-purified with SYCP1αNcore constructs
# B5: His-SYCE3 (full-length, amino-acids 1-88) (natural protein, human, UniProt A1L190 1-88, looked up)
# chain: MDDADPEERNYDNMLKMLSDLNKDLEKLLEEMEKISVQATWMAYDMVVMRTNPTLAESMRRLEDAFVNCKEEMEKNWQELLHETKQRL
# notes: SYCE3, full-length = amino-acids 1-88; source: E. coli BL21(DE3), co-expressed with MBP fusions; in lysate (amylose pull-down) or co-purified; not shown: His, N-terminal, kept
# B6: SYCE3 W41E Y44E (natural protein, human, UniProt A1L190 1-88, looked up)
# chain: MDDADPEERNYDNMLKMLSDLNKDLEKLLEEMEKISVQATEMAEDMVVMRTNPTLAESMRRLEDAFVNCKEEMEKNWQELLHETKQRL
# notes: SYCE3 with W41E Y44E; also called SYCE3 WY; WY mutant; source: E. coli BL21(DE3), purified, alone or co-purified with SYCP1 constructs; not shown: His or His-MBP, N-terminal, cleaved
# B7: SYCP1αN (amino-acids 101-362) (domain or fragment, human, UniProt Q15431 101-362, looked up)
# chain: GLSRVYSKLYKEAEKIKKWKVSTEAELRQKESKLQENRKIIEAQRKAIQELQFGNEKVSLKLEEGIQENKDLIKENNATRHLCNLLKETCARSAEKTKKYEYEREETRQVYMDLNNNIEKMITAFEELRVQAENSRLEMHFKLKEDYEKIQHLEQEYKKEINDKEKQVSLLLIQITEKENKMKDLTFLLEESRDKVNQLEEKTKLQSENLKQSIEKQHHLTKELEDIKVSLQRSVSTQKALEEDLQIATKTICQLTEEKETQ
# notes: SYCP1 α-helical N-terminal region, amino-acids 101-362; source: E. coli BL21(DE3), purified, alone or co-expressed and co-purified with SYCE3
# B8: SYCP1αN V105E L109E (domain or fragment, human, UniProt Q15431 101-362, looked up)
# chain: GLSREYSKEYKEAEKIKKWKVSTEAELRQKESKLQENRKIIEAQRKAIQELQFGNEKVSLKLEEGIQENKDLIKENNATRHLCNLLKETCARSAEKTKKYEYEREETRQVYMDLNNNIEKMITAFEELRVQAENSRLEMHFKLKEDYEKIQHLEQEYKKEINDKEKQVSLLLIQITEKENKMKDLTFLLEESRDKVNQLEEKTKLQSENLKQSIEKQHHLTKELEDIKVSLQRSVSTQKALEEDLQIATKTICQLTEEKETQ
# notes: SYCP1αN, amino-acids 101-362, with V105E L109E; source: E. coli BL21(DE3), in complex with SYCE3
# B9: MBP-SYCP1αN (domain or fragment, human, UniProt Q15431 101-362, looked up)
# chain: GLSRVYSKLYKEAEKIKKWKVSTEAELRQKESKLQENRKIIEAQRKAIQELQFGNEKVSLKLEEGIQENKDLIKENNATRHLCNLLKETCARSAEKTKKYEYEREETRQVYMDLNNNIEKMITAFEELRVQAENSRLEMHFKLKEDYEKIQHLEQEYKKEINDKEKQVSLLLIQITEKENKMKDLTFLLEESRDKVNQLEEKTKLQSENLKQSIEKQHHLTKELEDIKVSLQRSVSTQKALEEDLQIATKTICQLTEEKETQ
# notes: SYCP1αN, amino-acids 101-362; source: E. coli BL21(DE3), co-purified with His-SYCE3
# B10: SYCP1αNcore (amino-acids 206-362) (domain or fragment, human, UniProt Q15431 206-362, looked up)
# chain: ETRQVYMDLNNNIEKMITAFEELRVQAENSRLEMHFKLKEDYEKIQHLEQEYKKEINDKEKQVSLLLIQITEKENKMKDLTFLLEESRDKVNQLEEKTKLQSENLKQSIEKQHHLTKELEDIKVSLQRSVSTQKALEEDLQIATKTICQLTEEKETQ
# notes: SYCP1 αNcore (tetrameric core), amino-acids 206-362; Tetramer alone (SEC-MALS); two chains in the 2:1 complex with SYCE3; also called SYCP1 tetrameric core; source: E. coli BL21(DE3), purified alone or co-expressed and co-purified with SYCE3 (amylose, TEV, anion exchange, SEC); not shown: MBP, N-terminal, cleaved
# B11: MBP-SYCP1αNcore (amino-acids 206-362) (domain or fragment, human, UniProt Q15431 206-362, looked up)
# chain: ETRQVYMDLNNNIEKMITAFEELRVQAENSRLEMHFKLKEDYEKIQHLEQEYKKEINDKEKQVSLLLIQITEKENKMKDLTFLLEESRDKVNQLEEKTKLQSENLKQSIEKQHHLTKELEDIKVSLQRSVSTQKALEEDLQIATKTICQLTEEKETQ
# notes: SYCP1 αNcore (tetrameric core), amino-acids 206-362; source: E. coli BL21(DE3), co-expressed with SYCE3 constructs; in lysate (amylose pull-down) or co-purified (amylose, anion exchange, SEC); not shown: MBP, N-terminal, kept
# B12: SYCP1 αCore-ΔNtip (amino-acids 112-783) (domain or fragment, human, UniProt Q15431 112-783, looked up)
# chain: EAEKIKKWKVSTEAELRQKESKLQENRKIIEAQRKAIQELQFGNEKVSLKLEEGIQENKDLIKENNATRHLCNLLKETCARSAEKTKKYEYEREETRQVYMDLNNNIEKMITAFEELRVQAENSRLEMHFKLKEDYEKIQHLEQEYKKEINDKEKQVSLLLIQITEKENKMKDLTFLLEESRDKVNQLEEKTKLQSENLKQSIEKQHHLTKELEDIKVSLQRSVSTQKALEEDLQIATKTICQLTEEKETQMEESNKARAAHSFVVTEFETTVCSLEELLRTEQQRLEKNEDQLKILTMELQKKSSELEEMTKLTNNKEVELEELKKVLGEKETLLYENKQFEKIAEELKGTEQELIGLLQAREKEVHDLEIQLTAITTSEQYYSKEVKDLKTELENEKLKNTELTSHCNKLSLENKELTQETSDMTLELKNQQEDINNNKKQEERMLKQIENLQETETQLRNELEYVREELKQKRDEVKCKLDKSEENCNNLRKQVENKNKYIEELQQENKALKKKGTAESKQLNVYEIKVNKLELELESAKQKFGEITDTYQKEIEDKKISEENLLEEVEKAKVIADEAVKLQKEIDKRCQHKIAEMVALMEKHKHQYDKIIEERDSELGLYKSKEQEQSSLRASLEIELSNLKAELLSVKKQLEIEREEKEKLKREAKE
# notes: SYCP1 α-helical core without the αNtip, amino-acids 112-783; also called SYCP1's full α-helical core, in which αNtips were deleted; source: E. coli BL21(DE3), purified, alone or in complex with SYCE3
# Experiments:
# [1] = biological target: the molecule itself; experiment: SEC-MALS; co-expressed and co-purified SYCP1-SYCE3 complexes, 5-20 mg/ml; 20 mM Tris pH 8.0, 150 mM KCl, 2 mM DTT (Superose 6 Increase for MBP-SYCP1αN-His-SYCE3)
# [2] = biological target: B10; experiment: as above; details: both partners purified
# [3] = biological target: B11; experiment: as above; details: both partners purified
# [4] = biological target: B9; experiment: as above; details: both partners purified
# [5] = biological target: B7; experiment: as above; details: both partners purified
# [6] = biological target: B10; experiment: ITC; SYCE3 (400 μM) injected into SYCP1αNcore (70 μM) at 30°C; 25 mM Tris pH 8.0, 250 mM KCl, 2 mM DTT; apparent affinity; details: both partners purified
# [7] = biological target: the molecule itself; experiment: SEC-MALS; proteins in isolation, 5-20 mg/ml; Superdex 200 Increase, 20 mM Tris pH 8.0, 150 mM KCl, 2 mM DTT
Binder,stoichiometry N [1],stoichiometry N [2],other results
B1,2 SYCP1 chains in the complex with SYCE3,,
B2,,2 SYCP1 chains per SYCE3 chain,
B3,,2 SYCP1 chains per SYCE3 chain,
B4,,2 SYCP1 chains per SYCE3 chain,stoichiometry N [3]: 2 SYCP1 chains per SYCE3 chain
B5,,,stoichiometry N [3]: 2 SYCP1 chains per SYCE3 chain; stoichiometry N [4]: 2 SYCP1 chains per SYCE3 chain (2:1) and 4 SYCP1 chains with 2 SYCE3 chains (4:2)
B6,,2 SYCP1 chains per SYCE3 chain,stoichiometry N [5]: 2 SYCP1 chains per SYCE3 chain; Kd [6]: 16 nM; apparent KD of one replicate [6]: 10 nM and 22 nM and 16 nM
B7,2 SYCP1 chains in the 2:1 complex with SYCE3 and 4 SYCP1 chains in the 4:2 complex with SYCE3,,
B8,2 SYCP1 chains in the complex with SYCE3,,
B9,2 SYCP1 chains in the 2:1 complex with SYCE3 and 4 SYCP1 chains in the 4:2 complex with SYCE3,,
B10,2 SYCP1 chains in the complex with SYCE3,,stoichiometry N [7]: 4
B11,2 SYCP1 chains in the complex with SYCE3,,
B12,2 SYCP1 chains in the complex with SYCE3,,stoichiometry N [7]: 4
